Results on 41 sequences are retold here after the nanobody polyreactivity screen of Harvey et al. (2022).

The data set can be described thus: yeast display, Sf9 membrane polyspecificity reagent, FACS + sequencing; frameworks hold sequencing errors. In a few lines: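 A nanobody's polyreactivity label depends on the gate it was sorted from. Yeast display cells were stained with 10% biotinylated, detergent-solubilized Sf9 membrane reagent for 1 hour at 4 °C, enriched on streptavidin microbeads and sorted by FACS. The low and high (top ~1%) gates were set on anti-HA fluorescence for expression and streptavidin fluorescence for reagent binding.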
Turning to “QVQLVESGGGLVQAGGSLRLSCAASGSSFHTYAMGWYRQAPGKERELVAAINRRTGGTYYADSVKGRFTISRDNAKTTVYLQMNSLKPEDTAVYYCATDWFSYRGGIFDSWGQGTQVTVSS”, the “polyreactivity (PSR sort gate)” value is “low polyreactivity”.
The same measure for “QVQLVETVGGLVQAGFSLRLSCAASGFTYGAYAMGLYRQPPGKERELVAAITLRTGGSTYYADSVKGRFTISRDNAKYTVYLQMNSLKPEDTAVYYCAARVGLSPGGYGYWGQGTQVTVSS”: “high polyreactivity”.
With “QVQLAESGGGLVQAGGSLRLSCAASGSTFPRNPMGWYRQAPGKERELVATITSSGGGTYYADSVKGRFTISRDNAKITVYLQMNSLKPEDTAVYYCNADGPAGDAFDYWGQGTQVTVSS”, the “polyreactivity (PSR sort gate)” value is on record as “low polyreactivity”.
The entry for “QVQLVESGGGLVQAGGSLRLSCAASGSIFYLNAMGWYRQAPGKERELVAAINRGGSTSYADSVKGRFTISRDNAKNTVYLQMNSLKPEDTAVYYCAADHGGVQYSVRYDYWGQGTQVTVSS” is “low polyreactivity”; for “QVQLVESGGGLFQAGGSLRLSCAASGFTFARYAMGRSRTAPAKERELVARISWSGGSTYYADSVKGRFTISRDNAKNTVYLLMYSLKTEDTEVYYCAADGWYYRYPRDDYWGQGTQETVSS” it is “low polyreactivity”; for “QVQLVESGGGLVQAGGSLRLSCAASGLIFAWYAMGWYRQAPGKERELVATISWNGDRTYYADSVKGRFTISRDNAKNTVYLQMNSLKPEDTAVYYCAARFGSGFNYWGQGTQVTVSS” it is “high polyreactivity”.
Take “QVQLVESGGGLVQAGGSLRLSCAASGRIFVQYVMGWYRPAPGKERELVAAITGSDSTTYYADSVKGRFTISRDNAKNTVYLQMNSLKPEDTAVYYCNKDLWLQDDYWGQGTQVTVSS”: the “polyreactivity (PSR sort gate)” value is listed as “low polyreactivity”.
The entry for “QVQLVESGGGLVQAGGSLRLSCAASGSIFTWYTMGWYRQAPGKERELVAGIRTGGSTYYADSVKGRFTISRDNAKNTVYLQMNSLKPEDTSVYYCARQRWYRQYYFTSDYWGLGTQVTVSS” is “high polyreactivity”.
In the case of “QVQLVESGGGLVQAGGSLRLRCAASGFTIGANTMGWYRQAPGKEWELVASISASGGSTYYADSVKGRVTISRDNAKNTVYVQMNSLKPDDTAGYYCAARRYPGRTATYYSWGQGTQVTVSS”, the “polyreactivity (PSR sort gate)” value is “high polyreactivity”.
The same measure for “QVQLVESGGGLVQAGGSLRLSCAASGYTFRYYVMGWYRQAPGKERELVAAISFSGGSTYYADSVKGRFTISRDTAKNSGYLQMKSLKPEDTAVYYCAARPGGGKYRGYYYWGQGTQVTVSS”: “high polyreactivity”.
Consider “QVQRVESGGGFVQAGGSLRLSSAASGFTFGAYAMGWYRQAPGKEMELVASISWSGGSTYYADSVKGRFTISRVNAKNTVYLQMNSLKPEDTAVYYCNKDFVYPDDDGLFDYWGQGTQVTVSS”, for which the “polyreactivity (PSR sort gate)” value was “low polyreactivity”.
As to “QVQLVESGGGLVQAGGSLRLSCAASGSIFTYNAMGWYRQAPGKERELVAAIRLSGGSTYYADSVKGRFTISRDNAKNTVYLQMNSLKPEDTAVYYCATEYDYGSWYPDGWGIFDYWGQGTQVTVSS”, the “polyreactivity (PSR sort gate)” value is “low polyreactivity”.
The entry for “QVQLVESGGGLVQAGGSLHLSCAASGRTFVWYAMGWYRQAPGKERELVAAISWSGTSTYYADSVKGRFTNSRDYAKYNVYLQMNSLKPEDTAVYYCYEKYYYWGQGTQVTVSS” is “high polyreactivity”; for “HVQLVESGGGLVQAGGSLRLSCAASGSIFGNYVMGWYRQAPGKERELVAAISWSGGTNYADSVKGRFTISRDNAKNTVYLQMKSLKPEDTAVYYCAALSVWSYYTYYYWGQGTQVTVSS” it is “high polyreactivity”; for “QVQLVESGGGLVQAGGSLRLSCAASGSIFGGNTMGWYRQAPGKERELVAAISRSGGSTYYADSVKGRFTISRDNAKNTVYLQMNSLKPEDTAVYYCNRKQAGHAQGYDYWGQGTQVTVSS” it is “high polyreactivity”.
The entry for “QVQLVESGGGLVQAGGSLRLSCAASGGIFVGNAMGWYRQAPGKERELVAAISQRGGRTYYADSVKGRFTISRDNAKNTVYLQMNSLKPEDTAVYYCAAGYWLSTDSGYPFQYYLYDYWGQGTQVTVSS” is “high polyreactivity”; for “QVQLVDSGGGLVQAGGSLRLSCAASGRIFEGDAMGWYIQAPGKESDLVASISYDGGSTYYADSVKGRFTISRDNENITVELQMNSLKPEDTAVYYCAAVYRRRSYSFYYWGQGTQVTVSS” it is “high polyreactivity”; for “QVQLVESGGGLVQAGGSLRLRCAASARIYDTYAMGWYRQAPGKERELVASISIDGSTYYADSVKGRFTISRDNAKNTVYLQMNSLKREDTAVYYCNADGRYYTVRFEYWGQGTQVTVSS” it is “low polyreactivity”.
“QVQLQESGGGLVQAGGSLRLSCAASGFIFARNYIGWYRQAPGKERELVAGIGEGASTNYADSVKGRFTISRDNAKNTVYLQMNSLEPEDTAVYYCAVGDTVLGYHYYWGQGTQVTVSN”: the “polyreactivity (PSR sort gate)” value is given as “low polyreactivity”.
With “QVQLVESGGGLVQAGGSLRLSCAASGIIFDTNAIGWYSQAPGKERELVATITQRGGTTYYADSVKGRFTISRDNAKNTVYLQMNSLKPEDTAVYYCNAGPVRLPYDSWGQGSQVTVSS”, the “polyreactivity (PSR sort gate)” value is reported as “low polyreactivity”.
The same measure for “HVQLVESGGGLVQAGGSLRLSCAASGRTFYFNTMGWYRQAPGKEMELVASISYGSNTNYADSVKGRFTISRDNAKNTVYLQMNSLKPEDTAVYFCAVRWVYRTSSWGARYGRYDYWGQGTQVTVSS”: “high polyreactivity”.
The entry for “QGQLEESGGGLVQAGGSLRLSCPASGYILGGNAMGWYRQAPGKERELVARIRVSSGSTYADSVKGRFTISRDNAKNTVYLQMNSLKPEDTAVYYCAASISSRYRYTAYDYWGQGTQVTVSS” is “high polyreactivity”; for “QVQLVESGAGLVQAGGSLRLSCAASGRNFGTYAMGWYTQAPGTERELVAGINGSGGSTYYADSVKGRFTISRDNAKNTVFLQMNSLKPEDTAVYYCAKYNWYRAWRYGYWGQGTQVTVSS” it is “high polyreactivity”; for “QVQLVESGGRLVQAGGRLRLSCAASGFTFGSYAMGWYRQAPGKERELVPSISSAGRTYYADSVKGRFTISRDNAKNTVYLQMNSLKPEDTAVYYCNTDSRVTIYDYDYWGQGTQVTVSS” it is “low polyreactivity”.
On to “QVQLVESGGGLVQAGGSLRLSCAASGFTFDIYAMGWYRQAPGKERELVATISRSGGTTYYADSVKGRFTISRDNAKNTVYLQMNSLKPEDTAVYYCNAGRYYIGGYWGQGTQVTVSS”, for which the “polyreactivity (PSR sort gate)” value was “high polyreactivity”.
The entry for “QVQLVESGGGLVQAGGSLRLSCAASRIIFYAYAMRWYRQAPGNERELVAAMSWSGGSTYYADSVKGRYTISRDNAKNTFYLQMNSLKPEDTAVYYCAAYFNIYGLEYDYWGQGTQVTVSS” is “high polyreactivity”; for “QVQLLESGGGLVQAGGSLRLSCKARGSILGDRMSWYRQAPVKEHELVATIYDGGITYYADSMKGRFTISRDNAKNTVYLQMNRLRPEDTAVYYCGASFEGYRYHVYCGQGTQVTVSS” it is “low polyreactivity”.
Regarding “QDQLVESVGGLVQAGGSLRLSCAASGSTISLYAMGWYRQAPGKERELVAAISQSGSRTYFADSVKGRFTISRDNAKNTVYLQMISLKQEDTAVYYCAAYSPQTYLRWTYGYWGQGTQVTVSS”, the “polyreactivity (PSR sort gate)” value is “high polyreactivity”.
The entry for “PVQLVESGGGLVQAGASLRLSCAASGNTFIENAKGSYRQAPGKERELVADIDTGGSTYYADSVKGRFTISRDNAKNTVYLQMNRLKPEDTADYYCTAVGLYLYRYKFGYLGKIGPGYDYWGQGTQVTVSS” is “low polyreactivity”; for “QVQLVESGGGLVQAGGSLRLSCAASGRTFAFNAMGWCRQAPGKDRELVAAISQGADSTYYADSVKGRFTISRDNAKNPVDLQMNSLKPEDTAVYYCAAEAQYNFYSYDYWGQGTQVTVSS” it is “low polyreactivity”; for “QVQLVESGGGLVQAGGRLRLSCAPSGGIFNPNVMGGYRQSPGKETELVASITGRGGNTYYADSVKGRFTISRDNAKNTVYLQMNSLKPEDTAVYYCAAAIPHHSRVYYWGQGPQVTVSS” it is “low polyreactivity”.
The same measure for “QVQLVESGGGLVQAGGSLRLSCAASGSARYAMGWYRQAPGKERELVAAISRRGGSTFYADSVKGRFTISRDNAMNTVYLQMNSLKPEDTAVYYCAADGRISYDYWGQGTQVTVSS”: “low polyreactivity”; for “QVQLVESGGGLVQAGGSLRLSCAASGSTFEYYVMGWYRQAPGKERELVAAISGSGGGTYYADSVKGRFTISRDNAKNTVYLQMNSLKPEDTAVYYCAAVATQEKYDYWGQGTQVTVSS”: “low polyreactivity”; for “QVQLVESGGGLVQAGGSLRLSCAASGFIFTRYAMGWYRQAPGKERELVAAISASGGSTYYADSVKGRFTISRDNAKNTVYLQMNSLKPEDTAVYYCAAVPYRYTYDYWGQGTQVTVSS”: “high polyreactivity”.
For “QVQLVESGGGLVQAGGSLRLSCAASGRIFGWYAMGCYIQAPGKERELVAAISSNGGSTYYADSVKGRFTISRDNAKNTVYLQMNSLKPEDTAVYYCAAVRVFQYKYDRFNYWGQGTQVTVSS”, the “polyreactivity (PSR sort gate)” value is “high polyreactivity”.
Turning to “QVQLVESGGGLVQAGGSLRLSCAASGSIFVLYTIGWYRQAPGKERELVGAISYSGGSTNYADSVKGRFTISRDNAKNTVYLQMNSLKPEDTSVYYCADRASKGHKYWGQGTQVTVSS”, the “polyreactivity (PSR sort gate)” value was “high polyreactivity”.
For the sequence “QVQLVESGGGLVQAGGSLRLSCAASGRTFYWNTMGWYRQAPGKERELVAAINYSGGSTYYADSVKGRFTISRDNAKNTVYLQMNSLKPEDTAVYYCAAYFHGYKSLHRARSEYNYWGQGTQVNVSS”, the “polyreactivity (PSR sort gate)” value was “high polyreactivity”.
Regarding “QVQLVESGGGLVNAGGSLRLICDASGLIFYKNAMGWYRQAPGKERELVAAISWRDGRTYYADSVKGRFTISRDNAKNTVYLQMISLIPEDSAVYYCNAVRGITSYDYYYWGQGTQVTVSS”, the “polyreactivity (PSR sort gate)” value was “high polyreactivity”.
The same measure for “QVQLVESGGGLVQAGGSLRLSCAASGIIFAHNAMGWYRQAPGKERELVAAISKRGGSTYYADSVKGRFTISLDNAKNTVYLQMNSLKPEDTAVYYCAAASFTWVSRGYDYWGQGTQVTVAS”: “high polyreactivity”; for “QVQVVESGGGLVQAGGTLRLSCAASGFILPHYTMGWYRQAPAKERELVAAITSGVSTYYADSVKGRFTISRDNAKNTVYLQMNSLKTEDTAVYYCNALATYIGYKYDYWGQGTQVTVSS”: “low polyreactivity”; for “QVQLVESGGGLVQPGGSLRLSCAASGFIFSYYAIGWYRQAPGKERELVAAISYRGGSTHYADSVKGRFTISRDNAKNTVYLQMNSLKPEDTAVYYCAADRVRRPSPVGMDYWGQGTQVTVSS”: “high polyreactivity”.
